Reference: US20260116983A1

Legend:
[1] = biological target: human uPAR displayed on the surface of MDA-MB-231 cells (human) (UniProt Q03405); experiment: flow cytometry (FACS) on MDA-MB-231 cells
[2] = biological target: human uPAR displayed on the surface of MDA-MB-231 cells (human) (UniProt Q03405); experiment: cell-based or functional assay
[3] = biological target: human uPAR (recombinant protein used in ELISA and BLI) (human) (UniProt Q03405); experiment: ELISA, plate-coated human uPAR
Sequence of human uPAR (recombinant protein used in ELISA and BLI) (human) (Q03405 23-305 limits assumed): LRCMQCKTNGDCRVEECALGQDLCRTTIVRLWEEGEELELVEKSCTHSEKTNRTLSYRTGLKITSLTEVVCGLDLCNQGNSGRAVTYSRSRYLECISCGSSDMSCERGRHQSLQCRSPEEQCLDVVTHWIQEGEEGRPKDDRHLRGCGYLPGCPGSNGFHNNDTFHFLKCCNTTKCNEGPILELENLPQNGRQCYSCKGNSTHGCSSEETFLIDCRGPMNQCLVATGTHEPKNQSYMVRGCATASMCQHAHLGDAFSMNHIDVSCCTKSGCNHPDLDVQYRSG

Sequence of human uPAR displayed on the surface of MDA-MB-231 cells (human) (Q03405 23-305): as the sequence (Q03405 23-305 limits assumed) above

| Binder | Cellular recognition Max % [1] [%] | EC50 [1] [nM] | ADC Cytotoxicity Max % [2] [%] | Adhesion blocking EC50 [2] [nM] | EC50 [3] [nM] | ADCC NK-92 EC50 [2] [nM] | ADCC NK-92 Max % [2] [%] | ADCC PBMCs EC50 [2] [nM] | ADCC PBMCs Max % [2] [%] |
| --- | --- | --- | --- | --- | --- | --- | --- | --- | --- |
| 3C6 (antibody, from another filing, V domains shown) VH: QVQLQQWGAGLLKPSETLSLTCAVYGGSFSGYYWSWIRQPPGKGLEWIGEINHSGSTNYNPSLKSRVTISVDTSKNQFSLKLSSVTAADTAVYYCARGRRFGDFDYWGQGTLVTVSS VL: QPVLTQPPSVSVAPGKTARITCGGNNIGSKSVHWYQQKPGQAPVLVVYDDSDRPPGIPERFSGSNSGNTATLTISRVEAGDEADYYCQVWDSSSDHSPFGTGTKVTVLG | 971 | 292 | 1.42 | 810 | 0.28 | – | – | – | – |
| 2G10 (antibody, from another filing, V domains shown) VH: QVQLQQSGPGLVKPSQTLSLTCAISGDSVSSNSAAWNWIRQSPSRGLEWLGRTYYRSKWYNDYAVSVKSRIIINPDTSKNQFSLQLNSVTPEDTAVYYCARDPGGPLDDSFDIWGQGTMVTVSS VL: DVVMTQSPLSLPVTPGEPASISCRSSQSLLRSNGYNYLDWYLQKPGQSPQLLIYLGSIRASGVPDRFSGSGSGTDFTLRISRVEAEDVGVYYCMQALQTPFTFGQGTKLEIKR | 2200 | 16.6 | 4.9 | 3500 | 0.26 | 22.5 | 33.9 | 8.65 | 65.5 |
